Assay results reported in PMC3824023.

Molecular target: microtubules polymerised from bovine brain tubulin (bovine) (UniProt Q6B856)
UniProt Q6B856, sequence (Q6B856 whole entry, looked up): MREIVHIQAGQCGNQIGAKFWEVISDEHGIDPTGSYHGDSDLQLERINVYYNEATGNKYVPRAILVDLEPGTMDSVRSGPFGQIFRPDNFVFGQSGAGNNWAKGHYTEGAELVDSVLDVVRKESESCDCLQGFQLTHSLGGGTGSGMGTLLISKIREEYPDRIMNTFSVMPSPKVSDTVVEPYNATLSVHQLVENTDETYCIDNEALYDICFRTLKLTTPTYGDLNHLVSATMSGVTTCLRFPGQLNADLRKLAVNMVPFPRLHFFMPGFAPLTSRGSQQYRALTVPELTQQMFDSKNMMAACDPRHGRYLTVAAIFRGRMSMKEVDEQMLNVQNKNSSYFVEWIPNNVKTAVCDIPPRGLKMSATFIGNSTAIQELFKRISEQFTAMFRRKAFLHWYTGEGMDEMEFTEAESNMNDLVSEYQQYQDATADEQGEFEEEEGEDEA

B1: KIF17M-490 (C-terminally truncated KIF17, amino acids 1-490: motor, neck and first coiled-coil domains) (domain or fragment)
chain: MASEAVKVVVRCRPMNQRERELRCQPVVTVDCARAQCCIQNPGAADEPPKQFTFDGAYHVDHVTEQIYNEIAYPLVEGVTEGYNGTIFAYGQTGSGKSFTMQGLPDPPSQRGIIPRAFEHVFESVQCAENTKFLVRASYLEIYNEDVRDLLGADTKQKLELKEHPEKGVYVKGLSMHTVHSVAQCEHIMETGWKNRSVGYTLMNKDSSRSHSIFTISIEMSAVDERGKDHLRAGKLNLVDLAGSERQSKTGATGERLKEATKINLSLSALGNVISALVDGRCKHVPYRDSKLTRLLQDSLGGNTKTLMVACLSPADNNYDETLSTLRYANRAKNIRNKPRINEDPKDALLREYQEEIKKLKAILTQQMSPSSLSALLSRQVPPDPVQVEEKLLPQPVIQHDVEAEKQLIREEYEERLARLKADYKAEQESRARLEEDITAMRNSYDVRLSTLEENLRKETEAVLQVGVLYKAEVMSRAEFASSAEYPPAF
- K (0.5, MT) of MT-stimulated ATPase, KIF17M-490 alone: 1.3 µM
- K (0.5, MT) of MT-stimulated ATPase, KIF17M-490 with EB1 (2x molar ratio): 0.7 µM
- K (0.5, MT) of MT-stimulated ATPase, KIF17M-490 with equimolar KIF17-tail: 0.4 µM
